Consider one molecule from publication PMC12443421 (2025).

The target in assay [1] is wild-type 185 bp nucleosome (with symmetric flanking DNA) (human, UniProt P04908 1-130; P62807 1-126; Q71DI3 1-136; P62805 1-103).
In assay [2] the target is wild-type unmodified 147 bp nucleosome (nucleosome core particle) (human, UniProt P04908 1-130; P62807 1-126; Q71DI3 1-136; P62805 1-103).

B1: KDM5A^CAT (lysine demethylase 5A, residues 1-801) (domain or fragment)
chain: MAGVGPGGYAAEFVPPPECPVFEPSWEEFTDPLSFIGRIRPLAEKTGICKIRPPKDWQPPFACEVKSFRFTPRVQRLNELEAMTRVRLDFLDQLAKFWELQGSTLKIPVVERKILDLYALSKIVASKGGFEMVTKEKKWSKVGSRLGYLPGKGTGSLLKSHYERILYPYELFQSGVSLMGVQMPNLDLKEKVEPEVLSTDTQTSPEPGTRMNILPKRTRRVKTQSESGDVSRNTELKKLQIFGAGPKVVGLAMGTKDKEDEVTRRRKVTNRSDAFNMQMRQRKGTLSVNFVDLYVCMFCGRGNNEDKLLLCDGCDDSYHTFCLIPPLPDVPKGDWRCPKCVAEECSKPREAFGFEQAVREYTLQSFGEMADNFKSDYFNMPVHMVPTELVEKEFWRLVSSIEEDVIVEYGADISSKDFGSGFPVKDGRRKILPEEEEYALSGWNLNNMPVLEQSVLAHINVDISGMKVPWLYVGMCFSSFCWHIEDHWSYSINYLHWGEPKTWYGVPSHAAEQLEEVMRELAPELFESQPDLLHQLVTIMNPNVLMEHGVPVYRTNQCAGEFVVTFPRAYHSGFNQGYNFAEAVNFCTADWLPIGRQCVNHYRRLRRHCVFSHEELIFKMAADPECLDVGLAAMVCKELTLMTEEETRLRESVVQMGVLMSEEEVFELVPDDERQCSACRTTCFLSALTCSCNPERLVCLYHPTDLCPCPMQKKCLRYRYPLEDLPSLLYGVKVRAQSYDTWVSRVTEALSANFNHKKDLIELRVMLEDAEDRKYPENDLFRKLRDAVKEAETCASVAQLL
As usually defined, the Kd is the constant that tells how readily two partners part at equilibrium. The low end stands for higher affinity, the high end for lower affinity. Regarding B1, the values for the Kd in assay [1] and in assay [2] were 3 µM and 4 µM, respectively.
